Results taken from patent US8114968 (DYAX, dated 2012).

What was measured:
Assay in all cases: cell-based or functional assay
human MMP-12 [1] = target: T1, human MMP-12 (human, UniProt P39900 106-470, limits assumed)
human MMP-12 [2] = target: T1, human MMP-12; remark: listed apart in the source
murine MMP-12 = murine MMP-12 (mouse, UniProt P34960 110-473, limits assumed)
Chain of murine MMP-12 (P34960 110-473 limits assumed): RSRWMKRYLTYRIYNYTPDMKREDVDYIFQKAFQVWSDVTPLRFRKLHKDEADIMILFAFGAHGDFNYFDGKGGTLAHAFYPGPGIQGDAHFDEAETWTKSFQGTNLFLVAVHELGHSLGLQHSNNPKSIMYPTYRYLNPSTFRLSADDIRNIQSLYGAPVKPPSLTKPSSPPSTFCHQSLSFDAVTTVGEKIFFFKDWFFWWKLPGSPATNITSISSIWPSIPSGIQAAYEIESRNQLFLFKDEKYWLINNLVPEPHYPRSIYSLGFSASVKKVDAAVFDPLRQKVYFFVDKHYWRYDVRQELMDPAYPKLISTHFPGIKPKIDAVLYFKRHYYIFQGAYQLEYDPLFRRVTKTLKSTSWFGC

T1 sequence (P39900 106-470 limits assumed): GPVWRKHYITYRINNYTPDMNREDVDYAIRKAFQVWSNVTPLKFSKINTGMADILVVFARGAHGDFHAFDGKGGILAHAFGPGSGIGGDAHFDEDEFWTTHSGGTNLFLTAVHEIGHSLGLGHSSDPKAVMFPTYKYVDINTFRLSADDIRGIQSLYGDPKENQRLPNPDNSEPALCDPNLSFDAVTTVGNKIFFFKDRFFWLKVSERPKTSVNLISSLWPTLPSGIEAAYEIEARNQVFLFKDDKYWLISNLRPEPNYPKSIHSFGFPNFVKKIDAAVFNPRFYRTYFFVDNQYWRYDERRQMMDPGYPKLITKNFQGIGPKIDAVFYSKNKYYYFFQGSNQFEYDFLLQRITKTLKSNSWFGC

Binder | IC50 (nM), large scale purified Fabs (human MMP-12 [1]) [nM] | IC50 (nM), IgGs (human MMP-12 [1]) [nM] | also measured
539A-M0022-C07 Fab (Fab, V domains shown) VH: EVQLLESGGGLVQPGGSLRLSCAASGFTFSIYQMWWVRQAPGKGLEWVSSISSSGFTWYADSVKGRFTISRDNSKNTLYLQMNSLRAEDTAVYYCTTEDIGYYYGMDVWGQGTTVTVSS VL: DIQMTQSPATLSVSPGERATLSCRASQNVRNYLAWYQQKPGQAPRLLIYDASKRATGIPARFSGSGSGTDFTLTISGLEPEDFAVYYCQQRSNWPTFGPGTKVDIK | 24.2 | – | –
539A-M0022-C07 IgG (antibody, V domains shown) VH: EVQLLESGGGLVQPGGSLRLSCAASGFTFSIYQMWWVRQAPGKGLEWVSSISSSGFTWYADSVKGRFTISRDNSKNTLYLQMNSLRAEDTAVYYCTTEDIGYYYGMDVWGQGTTVTVSS VL: DIQMTQSPATLSVSPGERATLSCRASQNVRNYLAWYQQKPGQAPRLLIYDASKRATGIPARFSGSGSGTDFTLTISGLEPEDFAVYYCQQRSNWPTFGPGTKVDIK | – | 13.2 | –
539A-M0016-H05 Fab (Fab, V domains shown) VH: EVQLLESGGGLVQPGGSLRLSCAASGFTFSWYAMSWVRQAPGKGLEWVSRIVPSGGDTGYADSVKGRFTISRDNSKNTLYLQMNSLRAEDTAVYYCATFRGIMYGDYGSSYWYFDLWGRGTLVTVSS VL: DIQMTQSPATLSLSPGERATLSCRASQSVSSYLAWYQQKPGQAPRLLIYDASNRATGIPARFSGSGSGTDFTLTISSLEPEDFAVYYCQQRSNWPLTFGGGTKVEIK | 56.6 | – | –
539A-M0016-H05 IgG (antibody, V domains shown) VH: EVQLLESGGGLVQPGGSLRLSCAASGFTFSWYAMSWVRQAPGKGLEWVSRIVPSGGDTGYADSVKGRFTISRDNSKNTLYLQMNSLRAEDTAVYYCATFRGIMYGDYGSSYWYFDLWGRGTLVTVSS VL: DIQMTQSPATLSLSPGERATLSCRASQSVSSYLAWYQQKPGQAPRLLIYDASNRATGIPARFSGSGSGTDFTLTISSLEPEDFAVYYCQQRSNWPLTFGGGTKVEIK | – | 32.9 | –
539A-M0014-G11 Fab (Fab, V domains shown) VH: EVQLLESGGGLVQPGGSLRLSCAASGFTFSWYVMVWVRQAPGKGLEWVSSIYSSGGPTKYADSVKGRFTISRDNSKNTLYLQMNSLRAEDTAVYYCAKEGGVYGGPELYYYYYGMDVWGQGTTVTVSS VL: QYELTQPPSASGTPGQRITISCSGSSSNLGSNPVQWYQQLPGSAPKLLIHTNTHRPSGVPDRFSGSKSVTSASLAISGLQSEDEAEYYCATWDDSLNGGVFGGGTKLTVL | 35 | – | –
539A-M0014-G11 IgG (antibody, V domains shown) VH: EVQLLESGGGLVQPGGSLRLSCAASGFTFSWYVMVWVRQAPGKGLEWVSSIYSSGGPTKYADSVKGRFTISRDNSKNTLYLQMNSLRAEDTAVYYCAKEGGVYGGPELYYYYYGMDVWGQGTTVTVSS VL: QYELTQPPSASGTPGQRITISCSGSSSNLGSNPVQWYQQLPGSAPKLLIHTNTHRPSGVPDRFSGSKSVTSASLAISGLQSEDEAEYYCATWDDSLNGGVFGGGTKLTVL | – | 12.3 | –
539A-M0013-H06 Fab (Fab, V domains shown) VH: EVQLLESGGGLVQPGGSLRLSCAASGFTFSAYEMDWVRQAPGKGLEWVSGISSSGGPTYYADSVKGRFTISRDNSKNTLYLQMNSLRAEDTAVYYCARVGGWELLQDYYYYMDVWGKGTTVTVSS VL: DIQMTQSPATLSLSPGERATLSCRASHSVDNLAWYQQQPGQAPRLLIYDVSYRATGIPARFSGSGSGTDFTLTISSLEPEDFAVYYCQQRNNWPLSLTFGGGTKVEIK | 11.9 | – | –
539A-M0016-A11 Fab (Fab, V domains shown) VH: EVQLLESGGGLVQPGGSLRLSCAASGFTFSEYQMAWVRQAPGKGLEWVSSIYPSGGHTHYADSVKGRFTISRDNSKNTLYLQMNSLRAEDTAVYYCAKESYYDFWSGYYFDYWGQGTLVTVSS VL: DIQMTQSPSSLSASVRDRVTITCRTSQNINTYLNWYYQAPGRAPKLLIFGVSSLHRGVSSRFSGSGDGTEFTLTISSLQPEDIGTYFCQQSYSSPWTFGQGTKVEIK | 8.8 | – | –
539A-M0013-G12 Fab (Fab, V domains shown) VH: EVQLLESGGGLVQPGGSLRLSCAASGFTFSWYHMFWVRQAPGKGLEWVSGISSSGGYTHYADSVKGRFTISRDNSKNTLYLQMNSLRAEDTAVYYCATREGMLYDYVWGENYMDVWGKGTTVTVSS VL: DIQMTQSPSSLSASVGDRVTITCQASQDTYNRLHWYQQKPGKAPKLLIYDAVNLNRGVPSRFRGSGSGTNYILIITNLQPEDTATYYCQHSDDLSLAFGGGTKVEIK | 6.7 | – | –
539B-M0065-E12 (Fab, V domains shown) VH: EVQLLESGGGLVQPGGSLRLSCAASGFTFSWYNMHWVRQAPGKGLEWVSGISPSGGNTMYADSVKGRFTISRDNSKNTLYLQMNSLRAEDTAVYYCAKDIRGAYSSGLFDYWGRGTLVTVSS VL: DIQMTQSPSSLSASVGDRVTITCRANQSIYTYLNWYQQKPGKAPELLIYAASSLQSGVPSRFSGSGSGTDFTLTISSLQPEDFATYYCQQAGIFGQGTKLEIK | – | – | IC50hu (human MMP-12 [2]): 1.4 nM; IC50 m (murine MMP-12): < 10 nM (not printed; inferred)
539B-M0069-D10 (Fab, V domains shown) VH: EVQLLESGGGLVQPGGSLRLSCAASGFTFSLYHMHWVRQAPGKGLEWVSGIGPSGGWTIYADSVKGRFTISRDNSKNTLYLQMNSLRAEDTAVYYCAKDIRGAYSSGLFDYWGRGTLVTVSS VL: DIQMTQSPSSLSASVGDRVTITCRANQSIYTYLNWYQQKPGKAPELLIYAASSLQSGVPSRFSGSGSGTDFTLTISSLQPEDFATYYCQQAGIFGQGTKLEIK | – | – | IC50hu (human MMP-12 [2]): 2.3 nM; IC50 m (murine MMP-12): < 10 nM (not printed; inferred)
539B-M0065-G03 (Fab, V domains shown) VH: EVQLLESGGGLVQPGGSLRLSCAASGFTFSWYGMGWVRQAPGKGLEWVSVIVSSGGFTQYADSVKGRFTISRDNSKNTLYLQMNSLRAEDTAVYYCAKDIRGAYSSGLFDYWGRGTLVTVSS VL: DIQMTQSPSSLSASVGDRVTITCRANQSIYTYLNWYQQKPGKAPELLIYAASSLQSGVPSRFSGSGSGTDFTLTISSLQPEDFATYYCQQAGIFGQGTKLEIK | – | – | IC50hu (human MMP-12 [2]): 3 nM; IC50 m (murine MMP-12): < 10 nM (not printed; inferred)
539A-M0020-B01 Fab (Fab, V domains shown) VH: EVQLLESGGGLVQPGGSLRLSCAASGFTFSHYVMHWVRQAPGKGLEWVSYIGSSGGETRYADSVKGRFTISRDNSKNTLYLQMNSLRAEDTAVYYCARADYGDYDYYYYYGMDVWGQGTTVTVSS VL: QYELTQPPSVSVAPGQTATITCEGNNIASKSVHWYQQKPGQAPVLVVYDDRDRPSGISERISGSNSGNTPTLTIFRVEAGDEADYYCQVSDSATDHRVFGGGTKLTVL | 74.8 | – | –
539A-M0027-E11 Fab (Fab, V domains shown) VH: EVQLLESGGGLVQPGGSLRLSCAASGFTFSHYEMEWVRQAPGKGLEWVSSISSSGGPTMYADSVKGRFTISRDNSKNTLYLQMNSLRAEDTAVYYCARGMYGDYDFYYYYGMDVWGQGTTVTVSS VL: DIQMTQSPDTLSLSPGERGTLSCRASQSLSSSYLAWYQQKPGQAPRLLIYDASSRATGIPDRFSGSGSGTDFTLTIGRLEPEDSAVYYCQQYGSFPLTFGGGTKVEIK | 23.9 | – | –
539A-M0027-E11 IgG (antibody, V domains shown) VH: EVQLLESGGGLVQPGGSLRLSCAASGFTFSHYEMEWVRQAPGKGLEWVSSISSSGGPTMYADSVKGRFTISRDNSKNTLYLQMNSLRAEDTAVYYCARGMYGDYDFYYYYGMDVWGQGTTVTVSS VL: DIQMTQSPDTLSLSPGERGTLSCRASQSLSSSYLAWYQQKPGQAPRLLIYDASSRATGIPDRFSGSGSGTDFTLTIGRLEPEDSAVYYCQQYGSFPLTFGGGTKVEIK | – | 23.7 | –
539A-M0020-B01 IgG (antibody, V domains shown) VH: EVQLLESGGGLVQPGGSLRLSCAASGFTFSHYVMHWVRQAPGKGLEWVSYIGSSGGETRYADSVKGRFTISRDNSKNTLYLQMNSLRAEDTAVYYCARADYGDYDYYYYYGMDVWGQGTTVTVSS VL: QYELTQPPSVSVAPGQTATITCEGNNIASKSVHWYQQKPGQAPVLVVYDDRDRPSGISERISGSNSGNTPTLTIFRVEAGDEADYYCQVSDSATDHRVFGGGTKLTVL | – | 34.6 | –
539A-M0014-C09 IgG (antibody, V domains shown) VH: EVQLLESGGGLVQPGGSLRLSCAASGFTFSDYSMHWVRQAPGKGLEWVSGIGPSGGPTFYADSVKGRFTISRDNSKNTLYLQMNSLRAEDTAVYYCARGEYSSSDYYYYYGMDVWGQGTTVTVSS VL: DIQMTQSPATLSLSPGERATLSCGASQNIDGYYLAWYQQKPGQAPSLLIYDASSRSTGVPDRFSGSGSGTDFTLTISRLEPEDFAVYYCQHYGNSLWTFGQGTKVEIK | – | 43.3 | –
539A-M0014-C09 Fab (Fab, V domains shown) VH: EVQLLESGGGLVQPGGSLRLSCAASGFTFSDYSMHWVRQAPGKGLEWVSGIGPSGGPTFYADSVKGRFTISRDNSKNTLYLQMNSLRAEDTAVYYCARGEYSSSDYYYYYGMDVWGQGTTVTVSS VL: DIQMTQSPATLSLSPGERATLSCGASQNIDGYYLAWYQQKPGQAPSLLIYDASSRSTGVPDRFSGSGSGTDFTLTISRLEPEDFAVYYCQHYGNSLWTFGQGTKVEIK | 36.9 | – | –
539A-M0019-C05 Fab (Fab, V domains shown) VH: EVQLLESGGGLVQPGGSLRLSCAASGFTFSWYAMVWVRQAPGKGLEWVSYIGSSGGVTGYADSVKGRFTISRDNSKNTLYLQMNSLRAEDTAVYYCARQKRVDYYDSSGYPTNAEFDYWGQGTLVTVSS VL: QYELTQPRSVSGSPGQSVTISCTGSSSDVAGFYYVSWYQQHPGKAPKLMIRDVNDRPSGVSNRFSGSKSGNTASLTIAGLQTEDEAVYYCSSTSRSDTRVIFGGGTKLTV | 93 | – | –
539A-M0019-C05 IgG (antibody, V domains shown) VH: EVQLLESGGGLVQPGGSLRLSCAASGFTFSWYAMVWVRQAPGKGLEWVSYIGSSGGVTGYADSVKGRFTISRDNSKNTLYLQMNSLRAEDTAVYYCARQKRVDYYDSSGYPTNAEFDYWGQGTLVTVSS VL: QYELTQPRSVSGSPGQSVTISCTGSSSDVAGFYYVSWYQQHPGKAPKLMIRDVNDRPSGVSNRFSGSKSGNTASLTIAGLQTEDEAVYYCSSTSRSDTRVIFGGGTKLTV | – | 24.5 | –
539A-M0013-D11 Fab (Fab, V domains shown) VH: EVQLLESGGGLVQPGGSLRLSCAASGFTFSSYPMWWVRQAPGKGLEWVSGIVPSGGVTIYADSVKGRFTISRDNSKNTLYLQMNSLRAEDTAVYYCARVGWLASSDYYYYMDVWGKGTTVTVSS VL: DIQMTQSPSSLSASVGDRITISCQASQDIDNYLNWYQQRSGKAPKLLIYDAYNLKAGVPSRFRGSRSGTDFFLTISSLQPEDFATYYCQQSYRAPLTFGGGTKVEIK | 20.3 | – | –
